Test results published in US20200360486A1.

Experiments:
[1] = biological target: Cy3-conjugated K9-C-peptide (C-peptide bound to the elastin-like polypeptide composed of 9 [(VPGVG)11(VPGKG)1(VPGVG)1] repeating units), as hydrogel on an amine array; experiment: cell-based or functional assay
[2] = test system: Cy3-conjugated K9-C-peptide (C-peptide bound to the elastin-like polypeptide composed of 9 [(VPGVG)11(VPGKG)1(VPGVG)1] repeating units), as hydrogel on an amine array

Chain of Cy3-conjugated K9-C-peptide (C-peptide bound to the elastin-like polypeptide composed of 9 [(VPGVG)11(VPGKG)1(VPGVG)1] repeating units), as hydrogel on an amine array (chain, as listed by the source): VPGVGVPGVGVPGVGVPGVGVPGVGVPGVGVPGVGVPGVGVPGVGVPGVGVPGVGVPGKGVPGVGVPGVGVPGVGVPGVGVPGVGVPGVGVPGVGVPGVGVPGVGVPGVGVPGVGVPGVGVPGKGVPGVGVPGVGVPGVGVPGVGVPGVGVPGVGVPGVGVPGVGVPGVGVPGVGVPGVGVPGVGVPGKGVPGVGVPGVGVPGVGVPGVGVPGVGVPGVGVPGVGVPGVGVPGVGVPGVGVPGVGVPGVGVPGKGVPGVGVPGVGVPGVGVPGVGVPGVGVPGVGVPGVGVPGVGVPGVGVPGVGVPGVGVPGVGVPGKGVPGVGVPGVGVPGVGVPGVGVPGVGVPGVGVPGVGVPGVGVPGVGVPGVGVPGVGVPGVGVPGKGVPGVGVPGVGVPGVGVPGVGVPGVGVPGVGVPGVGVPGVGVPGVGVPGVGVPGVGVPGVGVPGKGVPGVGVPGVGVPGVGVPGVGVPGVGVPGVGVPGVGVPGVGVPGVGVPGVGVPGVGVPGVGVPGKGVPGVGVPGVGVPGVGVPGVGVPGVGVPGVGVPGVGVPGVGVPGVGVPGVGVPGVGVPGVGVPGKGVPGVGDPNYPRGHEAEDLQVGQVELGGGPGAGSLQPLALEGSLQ

| EC50 of on-chip degradation of Cy3-conjugated K9-C-peptide hydrogel versus protease concentration [1] [U/ml] | Substance | highest degradation rate of the hydrogel, at 120 min (time course) [2] [% at 120 min] | hydrogel degraded after the first elastase-2 treatment (repeated every 30 min) [2] | maximum degradation rate, after the fifth elastase-2 treatment [2] |
| --- | --- | --- | --- | --- |
| 0.17 | collagenase-2 (enzyme) |  |  |  |
|  | elastase-2 | 72.3 | 48.6+/-0.8% | 89.7+/-0.2% |
| 0.23 | elastase-2 (enzyme) |  |  |  |
| 510 | pepsin (enzyme) |  |  |  |
| 125 | trypsin (enzyme) |  |  |  |
